# Assay results: the supplement of paper PMC7125110
# ± gives the standard error. Variants at the floor of the assay were thinned out.
# B1: glmS ribozyme (parent)
# chain: AUAAAAGCGCCAGAACUACAGAAAUGUAGUUGACGAGGAGGAGGUUUAUCGAAUUUUCGGCGGAUGCCUCCAAA
# Columns and labels:
# Settings in all cases: with glucosamine-6-phosphate
# [1] = variants of: B1; assay: self-cleavage kobs at 160 uM GlcN6P; higher = faster cleavage; RNA array
# Procedure, shortened: (§1)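 Tracking of barcoded ribozyme variants used a hybridised Cy3 probe at 37 °C, after in situ transcription by E. coli RNA polymerase on sequenced MiSeq chips. The flowed solution held 40 μM to 10 mM glucosamine-6-phosphate in HEPES/KCl/Mg(OAc)2 buffer, and imaging ran over ~14 h. kobs was taken from exponential decay fits of normalised per-tile medians, and kcat and KM from weighted Michaelis–Menten fits.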
# [2] = variants of: B1; assay: self-cleavage kobs at 640 uM GlcN6P; higher = faster cleavage; RNA array
# Procedure, shortened: as §1
# [3] = variants of: B1; assay: self-cleavage kobs at 2500 uM GlcN6P; higher = faster cleavage; RNA array
# Procedure, shortened: as §1
# [4] = variants of: B1; assay: self-cleavage kobs at 10000 uM GlcN6P; higher = faster cleavage; RNA array
# Procedure, shortened: as §1
variant,measurement,setting,value
AUAAAAGCGCGAGAACUACAGAAAUGUAGUUGACGAGGAGGAGGUUUAGCGAAUUUCCGGCGGAUGCCUCCAAA [C11G U49G U57C],self-cleavage kobs at 160 uM GlcN6P,[1],< 1e-05 s⁻¹
AUAAAAGCGUCAGAACUACAGAAAUGUAGUUGACGAGGAGGAGGUCUAUCGAAUUUUCGGCGGAUGCCUUCAAA [C10U U46C C70U],self-cleavage kobs at 160 uM GlcN6P,[1],< 1e-05 s⁻¹
AUAAAAGCGUCAGAACUACAGAAAUGUAGUUGACGAGGAGGAGGUUUAGCGAAUUUUCGGCGGAUGCCUCCAAA [C10U U49G],self-cleavage kobs at 160 uM GlcN6P,[1],< 1e-05 s⁻¹
same,self-cleavage kobs at 640 uM GlcN6P,[2],< 1e-05 s⁻¹
AUAAAAGCGCGAGAACUACAGAAAUGUAGUAGACGAGGAGGAGGUUGAUCGAAUUUUCGGCGGAUGCCUCCAAA [C11G U31A U47G],self-cleavage kobs at 160 uM GlcN6P,[1],< 1e-05 s⁻¹
AUAAAAGCGCGAUAACUACAGAAAUGUAGUUGACGAGGAGGAGGCUUAUCGAAUUUUCGGCGGAUGCCUCCAAA [C11G G13U U45C],self-cleavage kobs at 160 uM GlcN6P,[1],< 1e-05 s⁻¹
AUAAAAGCGUCAGAACUACAGAAAUGUAGCUGACGAGGAGGAGGUUUAUCGAAUUUUCGGCGGAUGCCUCCAAA [C10U U30C],self-cleavage kobs at 160 uM GlcN6P,[1],< 1e-05 s⁻¹
same,self-cleavage kobs at 2500 uM GlcN6P,[3],< 1e-05 s⁻¹
AUAAAAGCGUCAGAACUACAGAAAUGUAGUUGACGAGGAGGAGGUUUAUCAAAUCUUCGGCGGAUGCCUCCAAA [C10U G51A U55C],self-cleavage kobs at 160 uM GlcN6P,[1],< 1e-05 s⁻¹
same,self-cleavage kobs at 2500 uM GlcN6P,[3],< 1e-05 s⁻¹
AUAAAAGCGCGAGAACUACAGAAAUGUAGUGGACGAGGAGGAGAUUUAUCGAAUUUUCGGCGGACGCCUCCAAA [C11G U31G G44A U65C],self-cleavage kobs at 160 uM GlcN6P,[1],< 1e-05 s⁻¹
same,self-cleavage kobs at 640 uM GlcN6P,[2],< 1e-05 s⁻¹
same,self-cleavage kobs at 2500 uM GlcN6P,[3],< 1e-05 s⁻¹
AUAAAAGCGCGAGUACUACAGAAAUGUAGUUGACUAGGAGGAGGUUUAUCGAAUUUUCGGCGGAUGCCUGCAAA [C11G A14U G35U C70G],self-cleavage kobs at 160 uM GlcN6P,[1],0.000125 ± 4.5e-05 s⁻¹
same,self-cleavage kobs at 640 uM GlcN6P,[2],0.000575 ± 0.0002 s⁻¹
same,self-cleavage kobs at 2500 uM GlcN6P,[3],0.00022 ± 8.2e-05 s⁻¹
same,self-cleavage kobs at 10000 uM GlcN6P,[4],0.000257 ± 5.4e-05 s⁻¹
AUAAAAGCGCUAGAACUACAGAAAUGUAUUUGACGAGGCGGAGGUUUAUCGAAAUUUCGGCGGAUGCCUCCAAA [C11U G29U A39C U54A],self-cleavage kobs at 160 uM GlcN6P,[1],< 1e-05 s⁻¹
AUAAAAGCGCGAGACCUACAGAAAUGUAGUUGCGGAGGAGGAGGUUUAUCGAAUCUUCGGCGGAUGCCUCCAAA [C11G A15C A33C C34G U55C],self-cleavage kobs at 160 uM GlcN6P,[1],< 1e-05 s⁻¹
same,self-cleavage kobs at 640 uM GlcN6P,[2],< 1e-05 s⁻¹
AUAAAAGCGCAAGAACUACAGAAAUGUAGUUGAUGAGGAGGAGGUUUAUCGAAUUUUCGUCGGAUGCCUCAAAA [C11A C34U G60U C71A],self-cleavage kobs at 160 uM GlcN6P,[1],< 1e-05 s⁻¹
same,self-cleavage kobs at 2500 uM GlcN6P,[3],< 1e-05 s⁻¹
AUAAAAGCGCUAGAACUACAGAAAUGUAGUUGACGAGGAGGAGGUUUAUCGAAUUUUCGGCGGAUGCCUGCAAA [C11U C70G],self-cleavage kobs at 160 uM GlcN6P,[1],0.000313 ± 0.00014 s⁻¹
same,self-cleavage kobs at 640 uM GlcN6P,[2],9e-05 ± 9.9e-06 s⁻¹
same,self-cleavage kobs at 2500 uM GlcN6P,[3],0.000104 ± 8.7e-06 s⁻¹
same,self-cleavage kobs at 10000 uM GlcN6P,[4],6.56e-05 ± 5.5e-06 s⁻¹
AUAAAAGCGUCAGAACUACAGAAAUGUAGUUGACGAGGAGGAGGUUUAUCGAAUUAUCGGCAGAAGCCGCCAAA [C10U U56A G62A U65A U69G],self-cleavage kobs at 160 uM GlcN6P,[1],3.94e-05 ± 1.6e-05 s⁻¹
AUAAAAGCGCGAGAACUACAGAAAUGUAGUUGACGAGGAGGAGGUUUAUCGAAUUUUCGGCGUAUGCCUCCAAA [C11G G63U],self-cleavage kobs at 160 uM GlcN6P,[1],< 1e-05 s⁻¹
same,self-cleavage kobs at 2500 uM GlcN6P,[3],< 1e-05 s⁻¹
same,self-cleavage kobs at 10000 uM GlcN6P,[4],< 1e-05 s⁻¹
AUAAAAGCGCUAGAACUACAGAAAUGUAGUUGACGAGGAGGGGGUUUAUCGAAAUUUCGGCGGAUGCCUCCAAA [C11U A42G U54A],self-cleavage kobs at 160 uM GlcN6P,[1],3.87e-05 ± 1.6e-05 s⁻¹
same,self-cleavage kobs at 640 uM GlcN6P,[2],0.000886 ± 0.00027 s⁻¹
AUAAAAGCGUCAGAACUACAGAAAUGUAGUUGACGAGGAGGACGUUCAUCGCAUUUUCGGCGGACACCUGCAAA [C10U G43C U47C A52C U65C G66A C70G],self-cleavage kobs at 160 uM GlcN6P,[1],< 1e-05 s⁻¹
same,self-cleavage kobs at 640 uM GlcN6P,[2],< 1e-05 s⁻¹
AUAAAAGCGCAAGAACUACAGAAAUGUAGUUGACGAGGAGGAUGUUUACCGAAUUUUCGGAGCAUGCCUCCAAA [C11A G43U U49C C61A G63C],self-cleavage kobs at 160 uM GlcN6P,[1],< 1e-05 s⁻¹
same,self-cleavage kobs at 2500 uM GlcN6P,[3],< 1e-05 s⁻¹
AUAAAAGCGCGAGAACUACAGAAAUGUAGUUGACGAGGAGGAGGUGUAUCGAAUUUUCGGCAGAUGCCUCCAAA [C11G U46G G62A],self-cleavage kobs at 160 uM GlcN6P,[1],< 1e-05 s⁻¹
same,self-cleavage kobs at 640 uM GlcN6P,[2],< 1e-05 s⁻¹
same,self-cleavage kobs at 2500 uM GlcN6P,[3],< 1e-05 s⁻¹
same,self-cleavage kobs at 10000 uM GlcN6P,[4],< 1e-05 s⁻¹
AUAAAAGCGCGAGAACUACAGAAAUGUAGUUGACGAGGAGGAGGUUUAUCGAAUUUUCGGCGGAUGACUCGAAA [C11G C67A C71G],self-cleavage kobs at 160 uM GlcN6P,[1],4.73e-05 ± 1.9e-05 s⁻¹
same,self-cleavage kobs at 640 uM GlcN6P,[2],0.000132 ± 3.5e-05 s⁻¹
same,self-cleavage kobs at 2500 uM GlcN6P,[3],0.000135 ± 4.2e-05 s⁻¹
AUAAAAGCGCUAGAACUACAGAAAUGUAGUUGACGAGGAGGAGGUUUAUCGAAUUUUCGGAGGAUGGCUCCAAA [C11U C61A C67G],self-cleavage kobs at 160 uM GlcN6P,[1],7.27e-05 ± 2.3e-05 s⁻¹
same,self-cleavage kobs at 640 uM GlcN6P,[2],8.2e-05 ± 3.6e-05 s⁻¹
same,self-cleavage kobs at 2500 uM GlcN6P,[3],7.14e-05 ± 3.3e-05 s⁻¹
AUAAAAGCGCGAGAACUACAGAAAUGUAUUUGACGAGGAGGAGGUUUAUCGAAUUUUCGGCGGAUGCCGCCAAA [C11G G29U U69G],self-cleavage kobs at 160 uM GlcN6P,[1],0.000155 ± 3.5e-05 s⁻¹
same,self-cleavage kobs at 640 uM GlcN6P,[2],0.000133 ± 3.6e-05 s⁻¹
AUAAAAGCGCUAGAGCUACAGAAAUGUAGUUGAUGAGGAGGAGGUUUAUCGAAUUUCCGGCGGAUGCCUCAAAA [C11U A15G C34U U57C C71A],self-cleavage kobs at 160 uM GlcN6P,[1],< 1e-05 s⁻¹
same,self-cleavage kobs at 640 uM GlcN6P,[2],< 1e-05 s⁻¹
same,self-cleavage kobs at 2500 uM GlcN6P,[3],< 1e-05 s⁻¹
AUAAAAGCGCGAGAACUACAGAAAUGUAGUUGUAGAGGAGAAGGUUUAUCGAAAUUUCGGCGGAUGCCUCCAAA [C11G A33U C34A G41A U54A],self-cleavage kobs at 160 uM GlcN6P,[1],< 1e-05 s⁻¹
same,self-cleavage kobs at 640 uM GlcN6P,[2],< 1e-05 s⁻¹
same,self-cleavage kobs at 2500 uM GlcN6P,[3],< 1e-05 s⁻¹
AUAAAAGCGCUAGAACUACAGAAAUGUAGUUGACGAGGAGGAGGUGUAUGGAAUUUUCGGCGGAUGCCUCCAAA [C11U U46G C50G],self-cleavage kobs at 160 uM GlcN6P,[1],5.55e-05 ± 1.9e-05 s⁻¹
same,self-cleavage kobs at 640 uM GlcN6P,[2],6.4e-05 ± 1.8e-05 s⁻¹
AUAAAAGCGCUAGAACUACAGAAAUGUAGUUCACGAGGAGGGGGUUUAUCGAAUUUUCUGCGGAUGCCUCCAAA [C11U G32C A42G G59U],self-cleavage kobs at 160 uM GlcN6P,[1],< 1e-05 s⁻¹
same,self-cleavage kobs at 2500 uM GlcN6P,[3],< 1e-05 s⁻¹
AUAAAAGCGCUAGAACUACAGAAAUGUAGUUGACGAGGAGCAGGUUUAUCGUAUUUUCGGCGGAUGCCUCCAAA [C11U G41C A52U],self-cleavage kobs at 160 uM GlcN6P,[1],< 1e-05 s⁻¹
same,self-cleavage kobs at 640 uM GlcN6P,[2],< 1e-05 s⁻¹
same,self-cleavage kobs at 2500 uM GlcN6P,[3],< 1e-05 s⁻¹
AUAAAAGCGCGAGAACUACAGAAAUGUAGUUGACGCGGAGGAGGUUUAUCGAAUAUUCGGCGGAUGCCUCCAAA [C11G A36C U55A],self-cleavage kobs at 160 uM GlcN6P,[1],< 1e-05 s⁻¹
AUAAAAGCGUCAGAACUACAGAAAUGUAGUAGACGAGGAGGAGGUUUAGCGAAUUUUCGGCUGAUGCUUCCAAA [C10U U31A U49G G62U C68U],self-cleavage kobs at 160 uM GlcN6P,[1],< 1e-05 s⁻¹
AUAAAAGCGCUUGAACUACAGAAAUGUAGUUGACGAGGAGGAGGUUUAUCGAAUUUUCGGCGGAUGCCUCAAAA [C11U A12U C71A],self-cleavage kobs at 160 uM GlcN6P,[1],8.52e-05 ± 2.9e-05 s⁻¹
same,self-cleavage kobs at 640 uM GlcN6P,[2],0.000232 ± 4.5e-05 s⁻¹
same,self-cleavage kobs at 2500 uM GlcN6P,[3],0.000457 ± 8.7e-05 s⁻¹
AUAAAAGCGCGAGAACUACAGAAAUGUAGUUGACAAGGAGGAGGUUUAUCGAAUUUUGGGCGGAUGCCUCCAAA [C11G G35A C58G],self-cleavage kobs at 160 uM GlcN6P,[1],< 1e-05 s⁻¹
same,self-cleavage kobs at 640 uM GlcN6P,[2],< 1e-05 s⁻¹
same,self-cleavage kobs at 2500 uM GlcN6P,[3],< 1e-05 s⁻¹
AUAAAAGCGCUAGAACUACAGAAAUGUAUUUGACGAGGAAGAGGUUUAUCGAAUUUUCGGCGGAUGCCUCCAAA [C11U G29U G40A],self-cleavage kobs at 160 uM GlcN6P,[1],< 1e-05 s⁻¹
same,self-cleavage kobs at 640 uM GlcN6P,[2],< 1e-05 s⁻¹
same,self-cleavage kobs at 10000 uM GlcN6P,[4],5.39e-05 ± 1.7e-05 s⁻¹
AUAAAAGCGUCAGAACUACAGAAAUGUAGUUGACGAGGAUGAGGUUUAUCGAAUUUUCGGCGGAUUUCUCCAAA [C10U G40U G66U C67U],self-cleavage kobs at 160 uM GlcN6P,[1],< 1e-05 s⁻¹
same,self-cleavage kobs at 2500 uM GlcN6P,[3],< 1e-05 s⁻¹
